# Measured values: patent US20090142855, “Polynucleotides and Polypeptides of the IL-12 Family of Cytokines” (published 2009)
# Tests used:
# [1] = biological target: T1, IL-23 (p19/p40 heterodimer) (Homo sapiens, UniProt P29460;Q9NPF7 P29460:23-328,Q9NPF7:20-189); experiment: FP; conditions: label: 5'-32P
# [2] = biological target: T1, IL-23 (p19/p40 heterodimer); experiment: filter; dot blot nitrocellulose; Dulbecco's PBS with Ca2+ and Mg2+, 0.1 mg/mL BSA, room temp 30 min; conditions: label: 5'-32P
# Procedure: Aptamer binding affinity determination. Trace 5′-³²P-labeled aptamers were combined with protein (IL-23 or IL-12) at various concentrations and incubated at room temperature for 30 minutes in Dulbecco's PBS (PBS plus Ca²⁺, Mg²⁺) plus 0.1 mg/mL BSA. Each titration curve was tested in duplicate. The reactions were then added to a dot blot apparatus (Minifold-1 Dot Blot, Acrylic, Schleicher and Schuell, Keene, N.H.), assembled (from top to bottom) with Protran nitrocellulose (Schleicher and Schuell, Keene, N.H.), Hybond-P nylon (Amersham Biosciences, Piscataway, N.J.) and GB002 gel blot paper (Schleicher and Schuell, Keene, NH). Aptamers bound to protein are retained on the nitrocellulose filter, whereas the non-protein bound RNA is captured on the nylon filter. The extent of aptamer capture on each filter was quantitated using a Phosphoimager (Molecular Dynamics). Equilibrium dissociation constants (KD) were calculated using the equation: […]
# FIGS. 3 and 4 show the comparison of the aptamer binding curves (in duplicate) to cynomolgus IL-23, cynomolgus IL-12, and human IL-23.
# T1 sequence (P29460 23-328, chain 1 of 2): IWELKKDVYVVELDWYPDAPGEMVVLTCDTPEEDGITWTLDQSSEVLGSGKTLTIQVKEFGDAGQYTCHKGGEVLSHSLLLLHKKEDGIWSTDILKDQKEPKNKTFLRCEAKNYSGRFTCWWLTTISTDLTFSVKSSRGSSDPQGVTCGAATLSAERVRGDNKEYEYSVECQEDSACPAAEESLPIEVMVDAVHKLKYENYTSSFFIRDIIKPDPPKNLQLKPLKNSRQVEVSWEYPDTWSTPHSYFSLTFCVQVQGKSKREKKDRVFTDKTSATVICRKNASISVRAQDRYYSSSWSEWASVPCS
# T1 sequence (Q9NPF7 20-189, chain 2 of 2): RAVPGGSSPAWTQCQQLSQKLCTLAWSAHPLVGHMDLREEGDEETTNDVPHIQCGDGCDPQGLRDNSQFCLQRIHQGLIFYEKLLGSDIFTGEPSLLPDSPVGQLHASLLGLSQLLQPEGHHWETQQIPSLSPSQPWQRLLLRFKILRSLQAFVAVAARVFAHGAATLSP
Binder,Kd [1] [nM],Kd [2] [nM]
"ACAGGCAAGUAAUUGGGGAGUGCGGGCGGGGUGU (mixed, 2'-OMe at all C and all U and at G16, G17, G24, G25, G30, G31; all other nucleotides 2'-deoxy (all A deoxy); PS after positions 17, 18, 19, 21; 3' inverted dT) [ARC1623]",0.25,–
"ACAGGCAAGUAAUUGGGGAGUGCGGGCGGGGUGU (mixed, 2'-OMe at all C and all U and at G16, G17, G24, G25, G30, G31; all other nucleotides 2'-deoxy (all A deoxy); PS after positions 2, 3, 4, 6, 7, 8, 10, 11, 14, 17, 18, 19, 21, 25, 27, 28, 32; 3' inverted dT) [ARC1626]",–,0.15
